Measured values from patent US20210238262A1 (published 2021).

T1: Recombinant DENV-2 sE (1-396) from strain 16681-PDK53 with C-terminal AviTag and poly-histidine tags (UniProt P29991 281-676, biotinylated on the AviTag for BLI)
T1 chain: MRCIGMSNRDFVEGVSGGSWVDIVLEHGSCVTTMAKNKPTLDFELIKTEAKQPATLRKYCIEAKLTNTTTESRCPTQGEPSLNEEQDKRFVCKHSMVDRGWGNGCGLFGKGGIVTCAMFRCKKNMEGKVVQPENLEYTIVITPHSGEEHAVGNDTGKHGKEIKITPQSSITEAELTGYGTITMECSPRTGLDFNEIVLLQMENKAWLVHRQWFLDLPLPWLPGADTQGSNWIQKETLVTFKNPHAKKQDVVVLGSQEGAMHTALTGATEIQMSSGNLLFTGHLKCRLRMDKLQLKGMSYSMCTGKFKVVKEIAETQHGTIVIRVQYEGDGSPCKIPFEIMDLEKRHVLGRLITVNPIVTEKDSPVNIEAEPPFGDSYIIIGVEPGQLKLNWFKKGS


Key:
[1] = biological target: MZ2; experiment: BLI; Fab
[2] = biological target: T1, Recombinant DENV-2 sE (1-396) from …; experiment: BLI; Fab

Binder	Kd [1]	Kd [2]
DENV-2 E (other, biotinylated on the AviTag for BLI) MRCIGMSNRDFVEGVSGGSWVDIVLEHGSCVTTMAKNKPTLDFELIKTEAKQPATLRKYCIEAKLTNTTTESRCPTQGEPSLNEEQDKRFVCKHSMVDRGWGNGCGLFGKGGIVTCAMFRCKKNMEGKVVQPENLEYTIVITPHSGEEHAVGNDTGKHGKEIKITPQSSITEAELTGYGTITMECSPRTGLDFNEIVLLQMENKAWLVHRQWFLDLPLPWLPGADTQGSNWIQKETLVTFKNPHAKKQDVVVLGSQEGAMHTALTGATEIQMSSGNLLFTGHLKCRLRMDKLQLKGMSYSMCTGKFKVVKEIAETQHGTIVIRVQYEGDGSPCKIPFEIMDLEKRHVLGRLITVNPIVTEKDSPVNIEAEPPFGDSYIIIGVEPGQLKLNWFKKGS	400 pM	–
MZ4 Fab (Fab, V domains shown) VH: QVHLQESGPGLVRPSETLSLTCTVSDGSISSYYWSWIRQPPGKGLEWIGSIYYTGSTNYNPSLKSRVTMSVDTSKNQFSLRLNSVTAADTAMYYCAGLDRYSWNEGGDHWGQGILVSVSS VL: QPVLTQPPSASGTPGQRVSISCSGSRSNLGKNTVNWYQQLPGTAPKLLIYNHSRRPSGVPERFSGSKSGTSASLAISGLQSEDEADYFCAAWDDSLNGLYVFGTGTKVTVLR	–	1000 pM
